Test results as given in patent US20100189695A1, “IRAK-1 AS REGULATOR OF DISEASES AND DISORDERS” (priority 2008, published 2010).

Biological target: NFAT (in Hela cells) (human)
Assay: cell-based or functional assay

## Flag tagged full length wild type human IRAK-1 (pFlag-IRAK-1)
  NFAT-luciferase reporter activity in Hela cells: 80 % reduction
